B1: BRF1 (parent)
chain: FVESSGGGSSAVGQFVSLDGAGKT
B2: ANKRD9 (parent)
chain: VGAAGSARQELLGDRPRWQRLLGE

Variants of: B1
Experiment: protein stability index of a GFP-peptide fusion (GPS, HEK-293T) (PSI 1-6); higher = more stable
Settings: c terminus: a fixed tail appended
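Note: lentivirally expressed fusions sorted by FACS into six bins by GFP to DsRed ratio, PSI derived from sequencing read proportions per bin multiplied by bin number.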

Protein stability index of substitutions, site by site:
K23: S 2; W 2.28; G 2.38; R 2.21; P 2.73; T 2.55; Q 2.01; L 2.21; M 2.16; Y 2.05; C 2.23; I 2.02; H 2.24; N 2.19; A 2.04; F 1.59; D 2.68; V 2.12; E 2.56
T24: K 2.44; V 2.33; M 2; Q 2.86; C 2.27; P 2.48; I 2.59; Y 1.85; H 1.79; S 2.19; W 2.24; N 2.15; R 3.12; G 2.26; L 2.02; A 2.98; E 2.3; D 2.72; F 1.62
G22: N 2.39; T 2.09; V 2.29; A 3; W 1.84; S 2.47; Y 1.9; P 3.13; F 2.35; D 3.15; Q 2.26; L 1.6; K 1.73; H 2.65; E 3.08; R 1.87; I 2.62; C 1.79
A21: V 1.92; W 1.73; Y 1.91

Variants of: B2
Experiment: as above
Settings: c terminus: a fixed tail appended

Protein stability index, by site and new letter:
G2: S 3.39; P 3.11; E 3.29; N 3.82; V 2.33; F 2.57; I 2.67; A 3.23; H 2.56; D 3.32; R 4.84; T 3.06; W 2; M 2.69; L 2.71; Y 2.24; C 2.24; Q 4.06
A4: R 3.02; L 3.18; K 2.11; W 2.62; D 3.35; S 3.24; P 3.39; C 2.09; I 2.84; T 4.35; Y 2.08; G 1.81; M 3.1; F 2.44; Q 4.11; V 2.92; E 2.91
L11: E 4.13; N 3.71; G 3.43; R 2.48; T 3.6; I 3.3; H 2.85; M 3.77; F 4.5; Q 3.8; S 4.02; C 3.22; P 3.86; K 3.69; V 3.98; Y 3.5; W 2.61
R15: M 3.05; I 2.73; V 3.41; P 3.11; C 3.11; N 3.6; S 4.15; G 3.75; F 2.75; L 2.51; K 3.06; Y 2.66; D 4.12; H 4.05; E 3.27; Q 3.96; W 3.1; T 3.68
G13: V 2.63; W 1.9; D 2.73; I 2.86; H 3.46; T 2.97; M 3.02; Q 2.76; C 2.77; P 3.7; A 3.9; Y 2.77; E 3.92; S 2.72; N 3.55; L 2.66; R 2.81; K 3.39
V1: L 2.86; F 2.7; G 3.13; E 2.77; T 3.38; A 3.58; Y 2.56; I 2.35; K 3.69; D 4.49; M 3.03; R 2.75; C 1.95; H 3.33; Q 3.7; P 3.62
A7: H 3.36; P 2.98; F 2.49; M 3.87; W 2.53; K 2.94; N 3.74; E 5; D 3.65; Q 4.21; S 2.93; T 3.62; Y 2.43; C 3.44; R 3.08; V 2.73; L 4.03; I 3.49
Q9: Y 2.27; K 3.05; N 2.74; L 2.81; I 2.96; A 3.37; C 2.56; F 2.81; V 3.14; T 3.13; M 3; E 2.11; R 3.04; S 3.46; G 3.41; P 3.29; D 3.7; H 3.38
D14: V 2.27; Q 2.35; L 2.36; S 3.25; F 2.12; C 1.39; R 2.75; A 2.83; H 3.24; T 2.94; G 3.18; N 2.6; P 3.13; M 2.76; E 3.27; Y 2.86; I 2.56
G5: M 2.37; D 2.48; I 2.69; F 2.86; S 4; Q 3.09; A 3; E 4.56; H 2.68; N 2.9; K 2.69; T 2.3; W 2.9; P 3.53; C 1.49; L 2.68; R 2.27; V 2.9; Y 1.93
E10: T 2.39; F 3.33; R 2.71; C 2.75; A 2.85; S 3.54; M 2.63; G 2.55; H 2.6; W 1.76; P 1.62; L 2.13; Q 3; I 2.4; Y 3.03; D 3.37; N 3.22; V 3.25
A3: I 3.48; T 3.14; K 2.86; M 2.53; C 1.52; H 2.91; F 2.52; W 2.53; R 3.06; V 3.89; E 3.55; G 3.49; Q 3; N 3.19; S 2.78; P 3.58; D 3.81
R8: T 2.76; K 3.15; N 4.03; Y 2.96; D 3.53; E 4.01; L 2.92; I 3.08; P 2.94; S 3.47; G 3.68; C 3.02; F 2.5; V 3.32; A 2.96; Q 3.37; H 3.39; W 2.35
P16: G 2.98; M 2.94; H 2.83; E 4.72; I 2.92; L 3.12; D 3.1; A 3.68; N 3.88; C 3.24; Q 2.65; K 3.68
L12: I 4.09; E 3.7; P 3.55; K 3.95; S 4.15; M 3.43; H 3.6; D 4.17; Q 3.27; F 2.57; N 3.43; A 3.64; G 3.79; V 2.49; Y 3.21; W 2.35; T 3; R 2.12
S6: D 3.8; L 2.49; K 2.72; F 2.85; G 2.85; V 2.86; Y 2.73; I 2.27; M 3.65; A 2.6; N 3.77; C 1.21; E 3.88; R 2.62; T 3.01; H 2.88
